Common to all, as to details: tags: GFP; Ni-NTA purified
For series [1], the target named is T1, dFnCas9-GFP (Francisella novicida, UniProt A0Q5Y3 SEQ:272-1899).
T1 chain: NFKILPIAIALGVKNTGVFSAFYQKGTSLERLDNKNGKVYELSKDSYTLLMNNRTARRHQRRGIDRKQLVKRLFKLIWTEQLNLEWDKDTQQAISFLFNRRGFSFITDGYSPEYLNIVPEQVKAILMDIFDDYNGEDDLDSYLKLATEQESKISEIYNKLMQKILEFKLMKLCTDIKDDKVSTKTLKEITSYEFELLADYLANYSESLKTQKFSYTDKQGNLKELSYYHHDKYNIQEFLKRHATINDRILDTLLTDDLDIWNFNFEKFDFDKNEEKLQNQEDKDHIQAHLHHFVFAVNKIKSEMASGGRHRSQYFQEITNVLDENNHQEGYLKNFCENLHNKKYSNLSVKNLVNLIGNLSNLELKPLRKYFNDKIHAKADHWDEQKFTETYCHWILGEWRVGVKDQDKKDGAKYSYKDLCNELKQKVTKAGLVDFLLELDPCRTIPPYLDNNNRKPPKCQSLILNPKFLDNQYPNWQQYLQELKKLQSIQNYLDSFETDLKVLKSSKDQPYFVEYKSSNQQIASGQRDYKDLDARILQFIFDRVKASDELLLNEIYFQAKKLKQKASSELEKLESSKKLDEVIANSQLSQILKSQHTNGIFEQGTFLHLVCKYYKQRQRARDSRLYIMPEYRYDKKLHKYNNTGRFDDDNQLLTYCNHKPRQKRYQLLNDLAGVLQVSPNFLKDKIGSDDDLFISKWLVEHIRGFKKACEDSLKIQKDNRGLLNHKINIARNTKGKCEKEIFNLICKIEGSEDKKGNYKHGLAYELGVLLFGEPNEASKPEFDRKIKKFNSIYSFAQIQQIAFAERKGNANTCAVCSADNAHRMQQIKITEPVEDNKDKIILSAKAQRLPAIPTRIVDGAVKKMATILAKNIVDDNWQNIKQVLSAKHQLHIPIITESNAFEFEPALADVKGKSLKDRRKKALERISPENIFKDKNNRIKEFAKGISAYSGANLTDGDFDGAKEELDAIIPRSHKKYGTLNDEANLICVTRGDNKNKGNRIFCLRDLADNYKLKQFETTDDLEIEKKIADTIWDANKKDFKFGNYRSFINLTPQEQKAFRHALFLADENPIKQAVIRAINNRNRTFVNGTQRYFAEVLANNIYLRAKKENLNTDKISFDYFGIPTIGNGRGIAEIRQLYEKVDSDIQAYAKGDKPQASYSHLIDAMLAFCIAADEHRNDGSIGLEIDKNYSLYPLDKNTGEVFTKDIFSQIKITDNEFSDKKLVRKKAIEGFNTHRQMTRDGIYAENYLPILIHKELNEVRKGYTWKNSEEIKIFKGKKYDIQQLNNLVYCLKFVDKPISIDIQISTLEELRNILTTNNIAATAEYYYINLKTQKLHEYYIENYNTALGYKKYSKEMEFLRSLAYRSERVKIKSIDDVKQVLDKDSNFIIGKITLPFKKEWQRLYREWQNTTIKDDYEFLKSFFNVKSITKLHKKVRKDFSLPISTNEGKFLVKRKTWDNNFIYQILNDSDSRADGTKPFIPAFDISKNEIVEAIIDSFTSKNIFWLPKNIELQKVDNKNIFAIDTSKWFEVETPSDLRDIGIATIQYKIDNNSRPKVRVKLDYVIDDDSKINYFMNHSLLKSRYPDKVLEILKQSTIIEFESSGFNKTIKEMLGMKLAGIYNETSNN
Put plainly: MST; low Kd, value in figure only; 30 bp dsDNA, 10 mM MgCl2. How it is done: (§1) MST was performed as reported previously [Dong, D. et al. The crystal structure of Cpfl in complex with CRISPR RNA. Nature (2016); Wienken, C. J., Baaske, P., Rothbauer, U., Braun, D. & Duhr, S. Protein-binding assays in biological liquids using microscale thermophoresis. Nat. Commun. (2010)]. Briefly, dFnCAS9-GFP (SEQ ID NO: 3) protein was complexed with PAGE purified respective IVT sgRNAs (purified by 12% Urea-PAGE). The binding affinities of the CAS9 proteins and sgRNA RNP complexes were calculated using Monolith NT. 115 (NanoTemper Technologies GmbH, Munich, Germany). RNP complex (Protein:sgRNA molar ratio,1:1) was reconstituted at 25° C. for 10 mins in reaction buffer (20 mM HEPES, pH7.5, 150 mM KCl, 1 mM DTT, 10 mM MgCl₂). HPLC purified 30 bp dsDNA (IDT) of different genomic loci with varying concentrations (ranging from 0.09 nM to 30,t/M) were incubated with RNP complex at 37° C. temperature for 30 min in reaction buffer. The sample was loaded into NanoTemper standard treated capillaries and measurements were performed at 25° C. using 20% LED power and 40% MST power. Data analyses were done using NanoTemper analysis software.

Series [2] has as its target T1, dFnCas9-GFP. Put plainly: MST; SEQ ID NO 33 mismatches at 2 and 6; no binding seen. The method, then: as §1
Series [3] deals with T1, dFnCas9-GFP. In words: MST; no binding seen. The method, then:
as §1

B1: HBB WT sgRNA (FnCas9) ; HBB WT target (ssRNA ; dsDNA)
RNA: GUAACGGCAGACUUCUCCUCAGGGUUUCAGUUGCGCCGAAAGGCGCUCUGUAAUCAUUUAAAAGUAUUUUGAACGGACCUCUGUUUGACACGUCUG
DNA 1: GTAACGGCAGACTTCTCCTC
DNA 2: GAGGAGAAGTCTGCCGTTAC
On to B1, for which, in series [1], the binding result was “binds”.

B2: HBB sgRNA with mismatches at PAM-proximal 2 and 6 (FnCas9) ; HBB WT target (ssRNA ; dsDNA)
RNA: GUAACGGCAGACUUAUCCACAGGGUUUCAGUUGCGCCGAAAGGCGCUCUGUAAUCAUUUAAAAGUAUUUUGAACGGACCUCUGUUUGACACGUCUG
DNA 1: GTAACGGCAGACTTCTCCTC
DNA 2: GAGGAGAAGTCTGCCGTTAC
Turning to B2, in series [2], the binding result is recorded as “no binding”.

B3: HBB WT sgRNA (FnCas9) ; HBB mismatched target 1 (ssRNA ; dsDNA)
RNA: GUAACGGCAGACUUCUCCUCAGGGUUUCAGUUGCGCCGAAAGGCGCUCUGUAAUCAUUUAAAAGUAUUUUGAACGGACCUCUGUUUGACACGUCUG
DNA 1: GAAGAAAAGTCTGCCGTTAC
DNA 2: GTAACGGCAGACTTTTCTTC
With B3, the binding result in series [3] was “no binding”.

The values above are taken from US20230031670, “METHOD AND KIT FOR DETECTION OF POLYNUCLEOTIDE” (Counci of Scientific & Industrial Research, published 2023).
